Test results: US20110165156A1 (published 2011)
Where a chain is given by its changes, count along the chain named.

B1: Mab 2F11 (antibody, V domains shown)
VH: QVQLKESGPGLVAPSQSLSITCTVSGFSLTTYDISWIRQSPGKGLEWLGVIWTDGGTNYNSPFMSRLSIRKDNSKSQVFLKMNRLQTDDTAIYYCVRDQRLYFDVWGAGTTVTVSS
VL: NIVMTQSPKSMSMSVGERVTLNCKASEDVNTYVSWYQQQPEQSPKLLIYGASNRYTGVPDRFTGGGSTTDFTLTISSVQAEDLADYFCGQSFSYPTFGTGTKLEIK
notes: Murine monoclonal antibody from a hybridoma; also called muMab 2F11
B2: Mab 2E10 (antibody, V domains shown)
VH: QVQLKESGPGLVAPSKSLSITCTVSGSSLDSFDISWIRQSPGKGLEWLGVIWTGGGTNYNSGFMSRLRITKDNSKSQVLLKMNSLQSDDTAIYYCVRDPRLYFDVWGAGTTVTVSS
VL: B1 VL with N22S, N30V, Q39K, E41D, G65S, T68A, F87Y, S91T
notes: Murine monoclonal antibody from a hybridoma
B3: Mab 1G10 (antibody, V domains shown)
VH: B1 VH with Q1R, T31S, T53S, D54G, S68R, R70S, N73D, K75R, M82V, Q99L
VL: KIVMTQSPKSMSVSVGERVSLSCKASEDVGTYVSWYQQKPEQSPKLLIYGSSNRYTGVPDRFTGSGSATDFTLTISSVQAEDLADYSCGQSFTYPTFGTGTKLEIK
notes: as for B2
B4: Mab 2H7 (antibody, V domains shown)
VH: B2 VH with S40P, T70S, L79F, N83S
VL: B1 VL with N22S, N30V, Q39K, G65S, T68A, V78I, F87Y, S91T
notes: as for B2

biological target: T1, human CSF-1R fragment D1-D3 (human, UniProt P07333 20-311); assay: SPR Biacore T100, 37 C, antibody captured, D1-D3 single cycle kinetics
T1 construct: Subcloned into the pCMV-presS-HisAvitag expression vector; not shown: His-Avi tag of the vector pCMV-presS-HisAvitag
T1 sequence (P07333 20-311): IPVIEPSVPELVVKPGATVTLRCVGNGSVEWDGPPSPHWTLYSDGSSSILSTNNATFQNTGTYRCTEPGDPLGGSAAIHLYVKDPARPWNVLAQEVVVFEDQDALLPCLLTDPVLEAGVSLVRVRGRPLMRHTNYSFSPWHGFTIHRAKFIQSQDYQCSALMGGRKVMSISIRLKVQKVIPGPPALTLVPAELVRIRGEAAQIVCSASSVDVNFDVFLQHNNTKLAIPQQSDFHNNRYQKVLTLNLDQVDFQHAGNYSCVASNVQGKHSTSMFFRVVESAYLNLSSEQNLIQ
Protocol: Antibodies against CSF-1R were captured via amine coupled capture molecules. Using the single cycle kinetics five increasing concentrations of human CSF-1R fragment D1-D3 (SEQ ID NO: 66) were injected. Human CSF-1R fragment D1-D3 was subcloned into pCMV-presS-HisAvitag expression vector.
Single Cycle Kinetics was measured at a flow rate of 30 μL/min by five consecutive injections of the analyte with concentrations, c=7.8, 31.25, 125 500 and 2000 nM, without regeneration. Each injection was 30 seconds long and followed by a dissociation phase of 120 Seconds for the first four injections, and finally 1200 seconds for the highest concentration (=last injection).
Kinetic parameters were calculated by using the usual double referencing (control reference: binding of analyte to capture molecule; Flow Cell: subdomain CSF-1R concentration “0” as Blank) and calculation with model ‘titration kinetics 1:1 binding with draft’.

B1: no binding (tested: 2000 nM).
B2: no binding (tested: 2000 nM).
B3: no binding (tested: 2000 nM).

biological target: CSF-1R of cynomolgous monocytes (cynomolgous); assay: cell-based or functional assay

Compared with B1, B2 is lower in “% inhibition (of survival) = (100% - % survival)” value: 96% for the first, 83% for the second.

Going from B3 to B4, the “% inhibition (of survival) = (100% - % survival)” value falls from 98% to 92%.

Compared with B1, B2 is higher in “% survival (cynomolgous monocytes, 5 µg/ml antibody)” value: 4% for the first, 17% for the second.

Going from B3 to B4, the “% survival (cynomolgous monocytes, 5 µg/ml antibody)” value rises from 2% to 8%.
